Test results from publication PMC6370633, “Mechanistic Insight Into the Interaction Between Helicobacter pylori Urease Subunit α and Its Molecular Chaperone Hsp60” (Frontiers in Microbiology, 2019).
Residue numbers refer to the chain shown, from its start.

B1: Helicobacter pylori Hsp60 with a 6 × His tag on its C terminus (natural protein, Helicobacter pylori 26695, UniProt P42383 1-546, looked up)
chain: MAKEIKFSDSARNLLFEGVRQLHDAVKVTMGPRGRNVLIQKSYGAPSITKDGVSVAKEIELSCPVANMGAQLVKEVASKTADAAGDGTTTATVLAYSIFKEGLRNITAGANPIEVKRGMDKAAEAIINELKKASKKVGGKEEITQVATISANSDHNIGKLIADAMEKVGKDGVITVEEAKGIEDELDVVEGMQFDRGYLSPYFVTNAEKMTAQLDNAYILLTDKKISSMKDILPLLEKTMKEGKPLLIIAEDIEGEALTTLVVNKLRGVLNIAAVKAPGFGDRRKEMLKDIAILTGGQVISEELGLSLENAEVEFLGKAGRIVIDKDNTTIVDGKGHSHDVKDRVAQIKTQIASTTSDYDKEKLQERLAKLSGGVAVIKVGAASEVEMKEKKDRVDDALSATKAAVEEGIVIGGGAALIRAAQKVHLNLHDDEKVGYEIIMRAIKAPLAQIAINAGYDGGVVVNEVEKHEGHFGFNASNGKYVDMFKEGIIDPLKVERIALQNAVSVSSLLLTTEATVHEIKEEKAAPAMPDMGGMGGMGGMGGMM
notes: also called recombinant Hsp60; source: E. coli BL21(DE3), purified (Ni-NTA, Sephadex G-75 gel filtration); not shown: His6, C-terminal, kept
B2: UreA-His (urease α subunit fused with a His tag on its C-terminus) (natural protein)
chain: MKLTPKELDKLMLHYAGELAKKRKEKGIKLNYVEAVALISAHIMEEARAGKKTAAELMQEGRTLLKPDDVMDGVASMIHEVGIEAMFPDGTKLVTVHTPIEANGKLVPGELFLKNEDITINEGKKAVSVKVKNVGDRPVQIGSHFHFFEVNRCLDFDREKTFGKRLDIASGTAVRFEPGEEKSVELIDIGGNRRIFGFNALVDRQADNESKKIALHRAKERGFHGAKSDDNYVKTIKE
notes: also called wild-type UreA-His; urease subunit α; source: E. coli BL21(DE3), purified (Ni-NTA); not shown: His tag, C-terminal, kept
B3: UreA-His K66A (natural protein)
chain: B2 chain with K66A
notes: source: E. coli BL21(DE3), purified as wild-type UreA-His; not shown: His tag, C-terminal, kept
B4: UreA-His K26A (natural protein)
chain: B2 chain with K26A
notes: as for B3
B5: UreA-His Y15A (natural protein)
chain: B2 chain with Y15A
notes: as for B3
B6: UreA-His D68A (natural protein)
chain: B2 chain with D68A
notes: as for B3
B7: UreA-His E25A (natural protein)
chain: B2 chain with E25A
notes: as for B3
B8: UreA-His R23A (natural protein)
chain: B2 chain with R23A
notes: as for B3
B9: UreA-His K22A (natural protein)
chain: B2 chain with K22A
notes: as for B3

Tests used:
[1] = target: T1, UreA-GST (UreA fused with GST tag on its C-terminus) (Helicobacter pylori 26695, UniProt P14916 1-238); assay: pull-down; GST-fused proteins on glutathione Sepharose 4B beads (20 μl), incubated with 0.4 ml purified Hsp60 (1 mg/ml in 50 mM Tris-HCl, pH 8.0) at 4°C for 2 h; washed four times; Western blot (anti-His) and SDS-PAGE; conditions: both partners purified
T1 construct: source: E. coli BL21(DE3), supernatant immobilized on glutathione Sepharose 4B beads; not shown: GST, C-terminal, kept
T1 sequence: B2 chain

[2] = target: B1; assay: SPR; BIAcore T100; Hsp60 immobilized on CM5 chip (~600 RU); UreA-His or mutants as analytes (0.36-2.19 μM); PBS pH 7.4, 30 μl/min, 25°C; kinetic analysis, global fit to 1:1 Langmuir model; conditions: both partners purified

Binder | stoichiometry N [1] | Kd [2] | koff [2] | kon [2]
B1 | ~1 Hsp60:UreA-GST |  |  | 
B2 |  | 0.017 µM | 0.000126 s⁻¹ | 7286 ± 15 M⁻¹ s⁻¹
B3 |  | 0.21 µM | 0.00115 s⁻¹ | 5400 ± 214 M⁻¹ s⁻¹
B4 |  | 0.46 µM | 0.0122 s⁻¹ | 26200 ± 250 M⁻¹ s⁻¹
B5 |  | 0.15 µM | 0.00164 s⁻¹ | 11200 ± 287 M⁻¹ s⁻¹
B6 |  | 2 µM | 0.00227 s⁻¹ | 1160 ± 41 M⁻¹ s⁻¹
B7 |  | 0.14 µM | 0.00567 s⁻¹ | 40200 ± 1670 M⁻¹ s⁻¹
B8 |  | 0.28 µM | 0.00144 s⁻¹ | 5070 ± 85 M⁻¹ s⁻¹
B9 |  | 0.31 µM | 0.00179 s⁻¹ | 5840 ± 146 M⁻¹ s⁻¹
